Patent publication US20110195022A1 (IMMUNOGEN, published 2011)
“And” between values parts separate entries of the source, which are not always exact repeats. Equal entries are not always repeated. Where two headings read alike, the source gives them in different places.

T1: human CD20 (human, UniProt P11836 1-297)
T1 sequence (looked up): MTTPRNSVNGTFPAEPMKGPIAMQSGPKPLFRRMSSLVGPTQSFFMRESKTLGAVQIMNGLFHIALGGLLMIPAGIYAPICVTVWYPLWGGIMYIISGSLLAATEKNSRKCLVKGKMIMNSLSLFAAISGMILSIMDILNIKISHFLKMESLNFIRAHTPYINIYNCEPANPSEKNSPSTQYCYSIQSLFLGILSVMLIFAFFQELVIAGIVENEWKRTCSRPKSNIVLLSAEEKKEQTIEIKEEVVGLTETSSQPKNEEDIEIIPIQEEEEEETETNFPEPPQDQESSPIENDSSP

T2: CD20-A170S P172S variant (human, UniProt P11836 1-297)
T2 construct: whole, on cells; also called CD20-AP; CD20AP
T2 sequence (looked up): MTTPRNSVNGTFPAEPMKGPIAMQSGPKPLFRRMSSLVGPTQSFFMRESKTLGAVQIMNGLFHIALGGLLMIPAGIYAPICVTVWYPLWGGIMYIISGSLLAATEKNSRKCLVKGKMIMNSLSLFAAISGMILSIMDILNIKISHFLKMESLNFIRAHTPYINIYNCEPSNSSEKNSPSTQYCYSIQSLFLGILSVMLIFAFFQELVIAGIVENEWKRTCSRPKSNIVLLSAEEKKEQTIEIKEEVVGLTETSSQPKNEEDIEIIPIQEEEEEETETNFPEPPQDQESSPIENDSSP


Columns and labels:
[1] = target: T1, human CD20; assay: cell-based or functional assay
[2] = target: T1, human CD20; assay: flow cytometry titration on BJAB cells, apparent Kd from the dose-response curve
Experimental: (§1) Data analysis was performed using CellQuest Pro (BD Biosciences, San Diego, US) and for each sample the mean fluorescence intensity for FL1 (MFI) was exported and plotted against the antibody concentration in a semi-log plot.
The value for the apparent dissociation constant (Kd) of each antibody was calculated using GraphPad Prism v4 (GraphPad software, San Diego, Calif.).

[3] = target: T2, CD20-A170S P172S variant; assay: flow cytometry, 300-19 cells transfected with CD20-A170S P172S, MFI against antibody concentration
[4] = target: T1, human CD20; assay: flow cytometry titration on BJAB cells, apparent Kd from the binding curve
Experimental: as §1

[5] = target: T1, human CD20; assay: flow cytometry, 300-19 cells transfected with wild type human CD20, MFI against antibody concentration
[6] = target: T1, human CD20; assay: flow cytometry, BJAB cells, MFI against antibody concentration
Experimental: as §1

[7] = target: T1, human CD20; assay: cell-based or functional assay; remark: listed apart in the source
[8] = target: T2, CD20-A170S P172S variant; assay: flow cytometry, 300-19 cells transfected with CD20-A170S P172S, MFI against antibody concentration; remark: listed apart in the source

Row | Binder | EC50 of CDC, WSU-DLCL-2 cells, 5% human complement [1] | Kd [2] [nM] | EC50 of ADCC, Granta-519 cells, human NK cells, LDH release [1] | EC50 of ADCC, SU-DHL-4 cells, human NK cells, LDH release [1] [ng/mL] | EC50 of CDC, Daudi cells, 5% human complement [1] | Kd [4] [nM] | EC50 of in vitro cytotoxicity (WST-8), Daudi cells [1] [nM] | EC50 of in vitro cytotoxicity (WST-8), Ramos cells [1] | other results
1 | chCD20-4 (antibody, V domains shown, Chimeric antibody: murine CD20-4 variable regions cloned in frame with human constant regions (plasmids pchCD20-4HCN and pchCD20-4LCZ), expressed in HEK-293T; the murine VL/VH entries 5 and 6 are used; a huIgG1 isotype control was used beside it; also called chimeric CD20-4) VH: EVKVEESGGGLVKTGGSMKLSCVASGFSFNNYWMNWVRQSPEKGLEWVAEIRLKSNNYATHYVESVKGRFTISRDDSKSSVYLQMNNLRAEDTGIYYCTGWDDYAMDHWGQGISVTVSS VL: DIVMTQSQKFMSTSVGDRVSVNCKASQNVGTNVAWYQQKPRQSPKGLIYSASFRYSGVPDRFTGSGSGTDFTLTIFNVQSDDLAEYFCQQYNNYPLTFGGGTKLEIKR | 27 ng/mL | 0.47 |  |  |  |  |  |  | 
2 | huCD20-4 (antibody, human IgG1, kappa, V domains shown, Resurfaced antibody expressed in HEK-293T cells; also called humanized CD20-4; resurfaced CD20-4) VH: EVQVEESGGGLVQPGGSMRLSCVASGFSFNNYWMNWVRQSPGKGLEWVAEIRLKSNNYATHYVDSVKGRFTISRDDSKSSVYLQMNNLRAEDTGIYYCTGWDDYAMDHWGQGISVTVSS VL: DIQMTQSPSTMSTSVGDRVSVNCKASQNVGTNVAWYQQKPGKSPKGLIYSASFRYSGVPSRFTGSGSGTDFTLTIFNVQPDDLAEYFCQQYNNYPLTFGGGTKLEIKR | ~40 ng/mL | 0.46 | 0.28 ng/mL and 0.29 ng/mL | 0.2 | 50 ng/mL and ~50 ng/mL | 1 |  |  | EC50 of ADCC, DOHH-2 cells, human NK cells, LDH release [1]: 0.57 ng/mL; EC50 of ADCC, JVM-13 cells, human NK cells, LDH release [1]: 0.097 ng/mL; EC50 of ADCC, Ramos cells, human NK cells, LDH release [1]: 0.4 ng/mL; EC50 of ADCC, WSU-DLCL-2 cells, human NK cells, LDH release [1]: 0.4 ng/mL; EC50 of CDC, Raji cells, 5% human complement [1]: 32 ng/mL; EC50 of CDC, Ramos cells, 5% human complement [1]: 10 ng/mL; EC50 of CDC, SU-DHL-4 cells, 5% human complement [1]: 30 ng/mL; binding result [3]: no binding (tested: 1e-7 M); EC50 (read off the curve) [5]: ~1 nM; EC50 (read off the curve) [6]: ~0.6 nM
3 | muCD20-4 (antibody, mouse IgG2a, kappa, V domains shown, Murine monoclonal antibody purified from hybridoma supernatant (ATCC PTA-10485 or PTA-10561); also called murine CD20-4) VH: EVKVEESGGGLVKTGGSMKLSCVASGFSFNNYWMNWVRQSPEKGLEWVAEIRLKSNNYATHYVESVKGRFTISRDDSKSSVYLQMNNLRAEDTGIYYCTGWDDYAMDHWGQGISVTVSS VL: DIVMTQSQKFMSTSVGDRVSVNCKASQNVGTNVAWYQQKPRQSPKGLIYSASFRYSGVPDRFTGSGSGTDFTLTIFNVQSDDLAEYFCQQYNNYPLTFGGGTKLEIKR |  | 0.97 |  |  |  |  |  |  | 
4 | huCD20-4-SPP-DM1 (antibody, human IgG1, kappa, V domains shown, DM1 linked through SPP (disulfide), 3.5-4 DM1 molecules per antibody; sites not stated) VH: EVQVEESGGGLVQPGGSMRLSCVASGFSFNNYWMNWVRQSPGKGLEWVAEIRLKSNNYATHYVDSVKGRFTISRDDSKSSVYLQMNNLRAEDTGIYYCTGWDDYAMDHWGQGISVTVSS VL: DIQMTQSPSTMSTSVGDRVSVNCKASQNVGTNVAWYQQKPGKSPKGLIYSASFRYSGVPSRFTGSGSGTDFTLTIFNVQPDDLAEYFCQQYNNYPLTFGGGTKLEIKR |  |  |  |  |  | 1.5 | 0.4 | 0.35 nM | 
5 | huCD20-4-SMCC-DM1 (antibody, human IgG1, kappa, V domains shown, DM1 linked through SMCC (thioether), 3.5-4 DM1 molecules per antibody; sites not stated, also called huCD20-4-MCC-DM1) VH: EVQVEESGGGLVQPGGSMRLSCVASGFSFNNYWMNWVRQSPGKGLEWVAEIRLKSNNYATHYVDSVKGRFTISRDDSKSSVYLQMNNLRAEDTGIYYCTGWDDYAMDHWGQGISVTVSS VL: DIQMTQSPSTMSTSVGDRVSVNCKASQNVGTNVAWYQQKPGKSPKGLIYSASFRYSGVPSRFTGSGSGTDFTLTIFNVQPDDLAEYFCQQYNNYPLTFGGGTKLEIKR | ~40 ng/mL |  | 0.28 ng/mL | 0.27 | ~80 ng/mL | 0.9 | 0.21 | 0.22 nM and 0.35 nM | EC50 of in vitro cytotoxicity (WST-8), DOHH-2 cells [7]: 0.11 nM; EC50 of in vitro cytotoxicity (WST-8), Daudi cells [7]: 0.29 nM; EC50 of in vitro cytotoxicity (WST-8), Granta-519 cells [7]: 0.03 nM; EC50 of in vitro cytotoxicity (WST-8), Ramos cells [7]: 0.54 nM; EC50 of in vitro cytotoxicity (WST-8), SC-1 cells [7]: 0.6 nM
6 | huCD20-4-SPDB-DM4 (antibody, human IgG1, kappa, V domains shown, DM4 linked through SPDB (disulfide), 3.5-4 DM4 molecules per antibody; sites not stated) VH: EVQVEESGGGLVQPGGSMRLSCVASGFSFNNYWMNWVRQSPGKGLEWVAEIRLKSNNYATHYVDSVKGRFTISRDDSKSSVYLQMNNLRAEDTGIYYCTGWDDYAMDHWGQGISVTVSS VL: DIQMTQSPSTMSTSVGDRVSVNCKASQNVGTNVAWYQQKPGKSPKGLIYSASFRYSGVPSRFTGSGSGTDFTLTIFNVQPDDLAEYFCQQYNNYPLTFGGGTKLEIKR | ~40 ng/mL |  |  |  |  |  | 0.19 | 0.39 nM | 
7 | chCD20-20 (antibody, V domains shown, Chimeric antibody: murine CD20-20 variable regions with human constant regions (equivalent plasmids to chCD20-4), expressed in HEK-293T; the murine VL/VH entries 7 and 8 are used; also called chimeric CD20-20) VH: QVQLQQSGAELARPGASVKLSCKASGYTFTSYWMHWVKQRPGQGLEWIGAIYPGDGDTRYTQKFKGKATLTADKSSYTAYMQLSSLASEDSAVYYCARSPDFYGSGYDFDYWGQGTTLTVSS VL: DIKMTQSPSSMYTSLGERVTITCKASQDINSFLSWFQQKPGKSPKTLIYRAYRLVDGVPSRFSGSGSGQDYSLTISSLEFEDMGIYYCLQSGAFPLTFGAGTKLELKR | 84 ng/mL | 0.42 |  |  |  |  |  |  | EC50 (read off the curve) [5]: ~0.7 nM
8 | muCD20-20 (antibody, mouse IgG1, kappa, V domains shown, Murine monoclonal antibody purified from hybridoma supernatant; also called murine CD20-20) VH: QVQLQQSGAELARPGASVKLSCKASGYTFTSYWMHWVKQRPGQGLEWIGAIYPGDGDTRYTQKFKGKATLTADKSSYTAYMQLSSLASEDSAVYYCARSPDFYGSGYDFDYWGQGTTLTVSS VL: DIKMTQSPSSMYTSLGERVTITCKASQDINSFLSWFQQKPGKSPKTLIYRAYRLVDGVPSRFSGSGSGQDYSLTISSLEFEDMGIYYCLQSGAFPLTFGAGTKLELKR |  | 0.59 |  |  |  |  |  |  | 
9 | 2F2 (antibody, V domains shown) VH: EVQLVESGGGLVQPGRSLRLSCAASGFTFNDYAMHWVRQAPGKGLEWVSTISWNSGSIGYADSVKGRFTISRDNAKKSLYLQMNSLRAEDTALYYCAKDIQYGNYYYGMDVWGQGTTVTVSS VL: EIVLTQSPATLSLSPGERATLSCRASQSVSSYLAWYQQKPGQAPRLLIYDASNRATGIPARFSGSGSGTDFTLTISSLEPEDFAVYYCQQRSNWPITFGQGTRLEIK |  |  |  |  |  |  |  |  | EC50 (read off the curve) [3]: ~2 nM; EC50 (read off the curve) [8]: ~4 nM
10 | rituximab (antibody, V domains shown) VH: QVQLQQPGAELVKPGASVKMSCKASGYTFTSYNMHWVKQTPGRGLEWIGAIYPGNGDTSYNQKFKGKATLTADKSSSTAYMQLSSLTSEDSAVYYCARSTYYGGDWYFNVWGAGTTVTVSA VL: QIVLSQSPAILSASPGEKVTMTCRASSSVSYIHWFQQKPGSSPKPWIYATSNLASGVPVRFSGSGSGTSYSLTISRVEAEDAATYYCQQWTSNPPTFGGGTKLEIK | 350 ng/mL and 190 ng/mL |  | 1.23 ng/mL | 0.53 | 300 ng/mL |  |  |  | EC50 of ADCC, DOHH-2 cells, human NK cells, LDH release [1]: 1.08 ng/mL; EC50 of ADCC, JVM-13 cells, human NK cells, LDH release [1]: 0.29 ng/mL; EC50 of ADCC, Ramos cells, human NK cells, LDH release [1]: 3.5 ng/mL; EC50 of CDC, Raji cells, 5% human complement [1]: 110 ng/mL; EC50 of CDC, Ramos cells, 5% human complement [1]: 60 ng/mL; EC50 of CDC, SU-DHL-4 cells, 5% human complement [1]: 310 ng/mL
